Patent US20200157212A1 (Pfizer, published 2020)
Residue numbers refer to the chain shown, from its start.

T1: Human ROBO2 overexpressed on HEK293 cells (human, UniProt Q9HCK4 22-1378)
T1 construct: also called ROBO2 cells; native ROBO2
T1 sequence: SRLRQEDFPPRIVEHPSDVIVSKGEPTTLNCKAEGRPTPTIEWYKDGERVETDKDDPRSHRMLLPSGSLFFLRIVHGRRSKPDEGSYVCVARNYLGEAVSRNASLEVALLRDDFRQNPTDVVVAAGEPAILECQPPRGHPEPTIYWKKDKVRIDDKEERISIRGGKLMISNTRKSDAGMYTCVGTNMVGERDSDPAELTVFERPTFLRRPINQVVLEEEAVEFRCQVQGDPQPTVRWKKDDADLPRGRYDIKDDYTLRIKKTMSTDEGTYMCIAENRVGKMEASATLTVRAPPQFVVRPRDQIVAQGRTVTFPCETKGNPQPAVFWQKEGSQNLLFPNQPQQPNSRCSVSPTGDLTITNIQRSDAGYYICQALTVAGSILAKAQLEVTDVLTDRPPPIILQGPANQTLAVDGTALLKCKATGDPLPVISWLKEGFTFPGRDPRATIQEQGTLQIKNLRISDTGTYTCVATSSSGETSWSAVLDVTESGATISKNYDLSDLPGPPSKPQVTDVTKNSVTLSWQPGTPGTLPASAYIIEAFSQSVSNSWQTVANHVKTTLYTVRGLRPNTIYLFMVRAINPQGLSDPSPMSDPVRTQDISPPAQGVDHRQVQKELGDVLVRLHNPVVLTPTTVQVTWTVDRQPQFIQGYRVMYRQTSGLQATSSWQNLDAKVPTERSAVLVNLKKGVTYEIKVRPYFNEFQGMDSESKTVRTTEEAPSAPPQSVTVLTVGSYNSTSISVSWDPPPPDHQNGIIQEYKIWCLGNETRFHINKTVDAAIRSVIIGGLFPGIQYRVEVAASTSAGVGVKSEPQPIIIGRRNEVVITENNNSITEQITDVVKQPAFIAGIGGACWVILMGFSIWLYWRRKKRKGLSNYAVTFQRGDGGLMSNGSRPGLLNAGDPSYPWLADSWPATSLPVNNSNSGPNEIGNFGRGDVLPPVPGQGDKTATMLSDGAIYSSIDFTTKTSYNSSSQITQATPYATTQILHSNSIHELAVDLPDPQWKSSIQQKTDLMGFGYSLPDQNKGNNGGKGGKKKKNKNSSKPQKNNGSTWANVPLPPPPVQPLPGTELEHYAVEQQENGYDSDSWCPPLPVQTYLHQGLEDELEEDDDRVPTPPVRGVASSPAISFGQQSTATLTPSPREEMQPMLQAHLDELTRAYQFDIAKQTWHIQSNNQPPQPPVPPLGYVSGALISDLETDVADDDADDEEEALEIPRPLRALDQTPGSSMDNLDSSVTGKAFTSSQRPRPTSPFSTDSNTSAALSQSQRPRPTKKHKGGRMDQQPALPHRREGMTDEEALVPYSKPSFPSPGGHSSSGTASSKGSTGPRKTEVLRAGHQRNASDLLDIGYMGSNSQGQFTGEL

B1: Abcs35 (antibody, human IgG1, kappa)
heavy: EVQLVQSGAEVKKPGASVKVSCKASGYTFTGYYMHWVRQAPGQGLEWMGWINPKNGDTEFPQKFQGRVTMTRDTSITTAYMDLSRLRSDDTAVYYCARESGDDAFDIWGQGTMVTVSSASTKGPSVFPLAPSSKSTSGGTAALGCLVKDYFPEPVTVSWNSGALTSGVHTFPAVLQSSGLYSLSSVVTVPSSSLGTQTYICNVNHKPSNTKVDKKVEPKSCDKTHTCPPCPAPEAAGAPSVFLFPPKPKDTLMISRTPEVTCVVVDVSHEDPEVKFNWYVDGVEVHNAKTKPREEQYNSTYRVVSVLTVLHQDWLNGKEYKCKVSNKALPAPIEKTISKAKGQPREPQVYTLPPSREEMTKNQVSLTCLVKGFYPSDIAVEWESNGQPENNYKTTPPVLDSDGSFFLYSKLTVDKSRWQQGNVFSCSVMHEALHNHYTQKSLSLSPGK
light: DIVMTQSPSSLSASVGDRVTITCRASQSISSYLNWYQQKPGKAPKLLIYAASSLQSGVPSRFSGSGSGTDFTLTISSLQPEDFATYYCQQSVGLFFGGGTKVEIKRTVAAPSVFIFPPSDEQLKSGTASVVCLLNNFYPREAKVQWKVDNALQSGNSQESVTEQDSKDSTYSLSSTLTLSKADYEKHKVYACEVTHQGLSSPVTKSFNRGEC
notes: fully human IgG1; VH of Ab96 with VL of Ab123
B2: Abcs35-J (antibody, human IgG1, kappa)
heavy: B1 heavy with D82E
light: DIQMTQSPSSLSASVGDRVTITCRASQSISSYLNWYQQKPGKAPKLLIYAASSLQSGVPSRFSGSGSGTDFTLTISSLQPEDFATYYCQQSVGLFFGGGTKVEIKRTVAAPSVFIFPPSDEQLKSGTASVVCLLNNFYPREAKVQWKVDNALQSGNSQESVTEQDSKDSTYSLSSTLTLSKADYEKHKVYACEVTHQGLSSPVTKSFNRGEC
notes: germlined variant of Abcs35; also called ABCS-J

How the values were obtained:
[1] = molecular target: T1, Human ROBO2 overexpressed on HEK293 …; experiment: flow cytometry, HEK293 cells
Procedure: Using flow cytometry, improvement in the binding EC₅₀ to human ROBO2 relative to the parental 93H2 was evaluated. Starting at 6.7 nM, 11-point, 3-fold dilution series were made for each antibody and used to stain HEK293 overexpressing human ROBO2 as described above for the ROBO2 fold selectivity (Example 2). […] In addition to measuring improved binding to human ROBO2, it was important to ensure that high affinity binding to both cynomolgus monkey ROBO2 and rat ROBO2 was maintained. Using HEK293 cells overexpressing either cynomolgus monkey ROBO2 or rat ROBO2, the relative dose-dependent binding of 93H2, Abcs25 and Abcs35 was evaluated as described above. High affinity binding to both cynomolgus monkey and rat ROBO2 was maintained in Abcs25 and Abcs35 (Table 4). […] Briefly, Abcs35 was immobilized to 300 resonance units (RU) on a CM5 chip. Association of ROBO2 Ig1-Ig2-His (ROBO2) was measured over 5 minutes and dissociation was followed for a period of 10 minutes.
(§1) The binding profile of Abcs35-J compared to Abcs35 was determined for human ROBO2, orthologs from cynomolgus monkey and rat, human ROBO1 and specificity for the RSK epitope from ROBO2 but not KSR from ROBO1. Binding was assessed by flow cytometry as described in Examples 2 (homolog specificity), Example 3 (ortholog reactivity) and Example 5 (RSK vs KSR epitope specificity). […] Binding of the antibodies was detected using a secondary fluorochrome conjugated anti-human IgG F(ab′)₂ antibody and samples analyzed on a Fortessa cytometer (BD Biosciences).

[2] = molecular target: T2, Human ROBO1 overexpressed on HEK293 cells (human, UniProt Q9Y6N7 26-1651); experiment: flow cytometry on HEK293 cells overexpressing human ROBO1
T2 construct: also called ROBO1 cells
T2 sequence (Q9Y6N7 26-1651 limits assumed): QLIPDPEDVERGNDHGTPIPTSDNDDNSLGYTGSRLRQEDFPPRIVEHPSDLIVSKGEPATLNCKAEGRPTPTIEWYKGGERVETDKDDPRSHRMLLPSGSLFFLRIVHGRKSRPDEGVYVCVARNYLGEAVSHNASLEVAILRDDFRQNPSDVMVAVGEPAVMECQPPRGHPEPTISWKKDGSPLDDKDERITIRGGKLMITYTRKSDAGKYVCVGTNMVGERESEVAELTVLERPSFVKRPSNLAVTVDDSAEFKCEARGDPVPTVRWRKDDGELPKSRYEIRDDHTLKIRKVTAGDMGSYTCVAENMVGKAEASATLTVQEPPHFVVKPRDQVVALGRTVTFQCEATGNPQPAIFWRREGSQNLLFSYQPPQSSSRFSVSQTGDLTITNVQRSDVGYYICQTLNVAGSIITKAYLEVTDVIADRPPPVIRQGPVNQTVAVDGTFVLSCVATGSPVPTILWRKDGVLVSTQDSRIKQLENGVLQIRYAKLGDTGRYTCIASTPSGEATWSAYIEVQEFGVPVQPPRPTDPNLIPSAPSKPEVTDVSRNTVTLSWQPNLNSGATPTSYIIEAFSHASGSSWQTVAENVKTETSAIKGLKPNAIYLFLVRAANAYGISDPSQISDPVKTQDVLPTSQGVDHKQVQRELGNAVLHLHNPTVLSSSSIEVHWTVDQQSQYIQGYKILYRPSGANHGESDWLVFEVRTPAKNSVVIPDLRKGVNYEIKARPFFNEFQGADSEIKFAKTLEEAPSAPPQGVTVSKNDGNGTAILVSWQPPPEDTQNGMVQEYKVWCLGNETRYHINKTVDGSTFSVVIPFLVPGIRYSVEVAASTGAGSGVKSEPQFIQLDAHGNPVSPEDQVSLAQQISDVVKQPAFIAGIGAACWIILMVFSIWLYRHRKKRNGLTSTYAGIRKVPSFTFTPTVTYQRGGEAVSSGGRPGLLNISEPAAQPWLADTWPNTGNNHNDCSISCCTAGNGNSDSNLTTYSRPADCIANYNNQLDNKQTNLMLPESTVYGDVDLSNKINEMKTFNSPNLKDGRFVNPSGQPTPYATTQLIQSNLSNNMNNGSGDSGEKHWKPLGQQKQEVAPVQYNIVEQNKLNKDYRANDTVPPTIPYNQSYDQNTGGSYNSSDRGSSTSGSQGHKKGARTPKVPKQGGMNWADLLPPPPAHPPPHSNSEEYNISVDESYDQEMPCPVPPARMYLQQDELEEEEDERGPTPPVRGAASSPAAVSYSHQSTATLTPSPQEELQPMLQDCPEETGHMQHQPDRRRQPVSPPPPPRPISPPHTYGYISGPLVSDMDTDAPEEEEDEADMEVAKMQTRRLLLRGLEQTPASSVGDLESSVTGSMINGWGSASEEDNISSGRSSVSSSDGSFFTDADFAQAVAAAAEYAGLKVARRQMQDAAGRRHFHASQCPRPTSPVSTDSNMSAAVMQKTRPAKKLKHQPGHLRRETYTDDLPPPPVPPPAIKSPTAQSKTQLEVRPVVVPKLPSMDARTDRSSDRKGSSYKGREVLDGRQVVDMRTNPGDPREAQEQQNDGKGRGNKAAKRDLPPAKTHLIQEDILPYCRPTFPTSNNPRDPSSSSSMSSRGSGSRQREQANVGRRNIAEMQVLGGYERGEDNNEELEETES
Procedure: as §1, with “Biosciences). […] FIGS. 16A-16F depicts binding profiles of Abcs35 (black circles) or Abcs35-J (grey squares) to human ROBO2 (FIG. 16A), cynomolgus monkey ROBO2 (FIG. 16B), rat ROBO2 (FIG. 16C), human ROBO1 (FIG. 16D), ROBO1 containing the ROBO2 RSK epitope (FIG. 16E) or ROBO2 containing the ROBO1 KSR epitope (FIG. 16 F).” for “Biosciences).”

Binder	EC50 [1]	binding result [2]
B1	0.089 nM	no binding (tested: last point just below 10^1 nM)
B2	0.102 nM	no binding (tested: last point just below 10^1 nM)
